Measurements from IntAct's records for PubMed 29039417.

B1: BBSome complex member BBS2 (Homo sapiens), Q9BXC9 (parent)
chain: MLLPVFTLKLRHKISPRMVAIGRYDGTHPCLAAATQTGKVFIHNPHTRNQHVSASRVFQSPLESDVSLLSINQAVSCLTAGVLNPELGYDALLVGTQTNLLAYDVYNNSDLFYREVADGANAIVLGTLGDISSPLAIIGGNCALQGFNHEGSDLFWTVTGDNVNSLALCDFDGDGKKELLVGSEDFDIRVFKEDEIVAEMTETEIVTSLCPMYGSRFGYALSNGTVGVYDKTSRYWRIKSKNHAMSIHAFDLNSDGVNELITGWSNGKVDARSDRTGEVIFKDNFSSAIAGVVEGDYRMDGHIQLICCSVDGEIRGYLPGTAEMRGNLMDTSAEQDLIRELSQKKQNLLLELRNYEENAKAELASPLNEADGHRGIIPANTRLHTTLSVSLGNETQTAHTELRISTSNDTIIRAVLIFAEGIFTGESHVVHPSIHNLSSSICIPIVPPKDVPVDLHLKAFVGYRSSTQFHVFESTRQLPRFSMYALTSLDPASEPISYVNFTIAERAQRVVVWLGQNFLLPEDTHIQNAPFQVCFTSLRNGGHLHIKIKLSGEITINTDDIDLAGDIIQSMASFFAIEDLQVEADFPVYFEELRKVLVKVDEYHSVHQKLSADMADHSNLIRSLLVGAEDARLMRDMKTMKSRYMELYDLNRDLLNGYKIRCNNHTELLGNLKAVNQAIQRAGRLRVGKPKNQVITACRDAIRSNNINTLFKIMRVGTASS
partner: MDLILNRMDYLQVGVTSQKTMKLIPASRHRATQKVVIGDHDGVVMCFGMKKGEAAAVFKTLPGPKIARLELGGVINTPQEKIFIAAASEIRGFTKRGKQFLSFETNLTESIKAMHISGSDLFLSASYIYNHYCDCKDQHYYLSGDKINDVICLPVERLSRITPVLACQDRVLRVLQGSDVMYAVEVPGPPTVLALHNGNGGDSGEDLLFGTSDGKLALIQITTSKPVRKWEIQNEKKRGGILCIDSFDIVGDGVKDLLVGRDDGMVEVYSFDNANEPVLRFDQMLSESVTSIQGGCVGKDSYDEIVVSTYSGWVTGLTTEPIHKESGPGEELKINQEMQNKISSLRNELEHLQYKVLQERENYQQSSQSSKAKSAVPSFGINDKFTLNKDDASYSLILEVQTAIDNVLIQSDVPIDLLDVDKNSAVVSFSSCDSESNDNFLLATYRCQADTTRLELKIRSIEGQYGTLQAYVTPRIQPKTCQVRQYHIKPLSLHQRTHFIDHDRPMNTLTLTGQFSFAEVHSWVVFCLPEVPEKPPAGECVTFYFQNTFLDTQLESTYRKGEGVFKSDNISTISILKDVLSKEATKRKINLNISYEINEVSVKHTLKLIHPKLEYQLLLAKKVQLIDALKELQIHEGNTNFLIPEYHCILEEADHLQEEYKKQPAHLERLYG

Variants of: B1
Conditions: with BBS7, Q8IWZ6-2

Variant	effect of a mutation on the interaction
F575A	with no effect
F575E	with no effect
F575K	with no effect
M614K	with no effect
M614A	with no effect
M614E	with no effect
G627K	with no effect
G627E	with no effect
G627A	with no effect
E592K	with no effect
E592A	with no effect
Y589E	with no effect
Y589K	with no effect
Y589A	with no effect
D613K	with no effect
D613A	with no effect
D613E	with no effect
F590K	with no effect
F590E	with no effect
F590A	with no effect
H604K	with no effect
H604E	with no effect
H604A	with no effect

Variant	effect of a mutation on the interaction
V600E	with no effect
V600A	with no effect
V600K	with no effect
I567E	with no effect
I567A	with no effect
I567K	with no effect
S611E	with no effect
S611A	with no effect
S611K	with no effect
A628E	with no effect
A628K	disrupting interaction strength
V588K	with no effect
V588A	with no effect
V588E	with no effect
V626E	with no effect
V626A	with no effect
V626K	with no effect
D601E	with no effect
D601A	with no effect
D601K	with no effect
H607K	with no effect
H607E	with no effect
H607A	disrupting interaction strength

Variant	effect of a mutation on the interaction
L625A	with no effect
L625K	with no effect
L625E	with no effect
Y603A	with no effect
Y603E	with no effect
Y603K	with no effect
G565A	with no effect
G565K	with no effect
G565E	with no effect
Q608A	with no effect
Q608E	with no effect
Q608K	with no effect
P587A	with no effect
P587K	with no effect
P587E	with no effect
D585A	with no effect
D585K	with no effect
D585E	with no effect
E602A	with no effect
E602K	with no effect
E583K	with no effect
E583A	with no effect
V596A	with no effect

Variant	effect of a mutation on the interaction
V596K	with no effect
V596E	with no effect
N619A	with no effect
N619K	with no effect
N619E	with no effect
Q569E	with no effect
Q569K	with no effect
Q569A	with no effect
A572E	with no effect
A572K	with no effect
F586K	with no effect
F586A	with no effect
F586E	with no effect
M571E	with no effect
M571A	with no effect
M571K	with no effect
E578K	with no effect
E578A	with no effect
S570E	with no effect
S570K	with no effect
S570A	with no effect
S573A	with no effect
S573E	with no effect

Variant	effect of a mutation on the interaction
S573K	with no effect
I621E	with no effect
I621A	with no effect
I621K	with no effect
L620A	with no effect
L620K	with no effect
L620E	with no effect
D566K	with no effect
D566E	with no effect
D566A	with no effect
L580E	with no effect
L580A	with no effect
L580K	with no effect
S623E	with no effect
S623A	with no effect
S623K	with no effect
I568K	with no effect
I568E	disrupting interaction strength
I568A	with no effect
A584E	with no effect
A584K	with no effect
L593A	with no effect
L593K	with no effect

Variant	effect of a mutation on the interaction
L593E	with no effect
A615K	with no effect
A615E	with no effect
V582A	with no effect
V582E	with no effect
V582K	with no effect
R594A	with no effect
R594K	with no effect
R594E	with no effect
L610E	with no effect
L610K	with no effect
L610A	disrupting interaction strength
S618E	with no effect
S618K	with no effect
S618A	with no effect
V598K	with no effect
V598A	with no effect
V598E	with no effect
S605K	with no effect
S605E	disrupting interaction strength
S605A	with no effect
D579E	with no effect
D579K	with no effect

Variant	effect of a mutation on the interaction
D579A	with no effect
K609A	with no effect
K609E	with no effect
V606K	with no effect
V606E	with no effect
V606A	with no effect
D616E	with no effect
D616K	with no effect
D616A	with no effect
A564E	with no effect
A564R	disrupting interaction strength
A564K	with no effect
A564H	disrupting interaction strength
A576E	with no effect
A576K	with no effect
Q581K	with no effect
Q581A	with no effect
Q581E	with no effect
K599E	with no effect
K599A	with no effect
K595E	with no effect
K595A	with no effect
A612E	with no effect

Variant	effect of a mutation on the interaction
A612K	with no effect
L563K	with no effect
E591K	with no effect
E591A	with no effect
H617K	with no effect
H617E	with no effect
H617A	with no effect
L624A	with no effect
L624K	with no effect
L624E	with no effect
R622E	with no effect
R622A	with no effect
R622K	with no effect
L597E	with no effect
L597K	with no effect
L597A	with no effect
I577A	with no effect
I577E	with no effect
I577K	with no effect
F574A	with no effect
F574E	with no effect
F574K	with no effect
F574L	disrupting interaction strength
